Measurements: article PMC7677223 (Nature microbiology, 2020)

Columns and labels:
[1] = molecular target: VZV capsid (MCP pORF40, SCP pORF23, Tri1 pORF20, Tri2 pORF41) (varicella-zoster virus (P-Oka strain)) (UniProt P09245); assay: cryo-EM structure
[2] = molecular target: the molecule itself; assay: cryo-EM structure

Sequence of VZV capsid (MCP pORF40, SCP pORF23, Tri1 pORF20, Tri2 pORF41) (varicella-zoster virus (P-Oka strain)) (P09245 whole entry, looked up): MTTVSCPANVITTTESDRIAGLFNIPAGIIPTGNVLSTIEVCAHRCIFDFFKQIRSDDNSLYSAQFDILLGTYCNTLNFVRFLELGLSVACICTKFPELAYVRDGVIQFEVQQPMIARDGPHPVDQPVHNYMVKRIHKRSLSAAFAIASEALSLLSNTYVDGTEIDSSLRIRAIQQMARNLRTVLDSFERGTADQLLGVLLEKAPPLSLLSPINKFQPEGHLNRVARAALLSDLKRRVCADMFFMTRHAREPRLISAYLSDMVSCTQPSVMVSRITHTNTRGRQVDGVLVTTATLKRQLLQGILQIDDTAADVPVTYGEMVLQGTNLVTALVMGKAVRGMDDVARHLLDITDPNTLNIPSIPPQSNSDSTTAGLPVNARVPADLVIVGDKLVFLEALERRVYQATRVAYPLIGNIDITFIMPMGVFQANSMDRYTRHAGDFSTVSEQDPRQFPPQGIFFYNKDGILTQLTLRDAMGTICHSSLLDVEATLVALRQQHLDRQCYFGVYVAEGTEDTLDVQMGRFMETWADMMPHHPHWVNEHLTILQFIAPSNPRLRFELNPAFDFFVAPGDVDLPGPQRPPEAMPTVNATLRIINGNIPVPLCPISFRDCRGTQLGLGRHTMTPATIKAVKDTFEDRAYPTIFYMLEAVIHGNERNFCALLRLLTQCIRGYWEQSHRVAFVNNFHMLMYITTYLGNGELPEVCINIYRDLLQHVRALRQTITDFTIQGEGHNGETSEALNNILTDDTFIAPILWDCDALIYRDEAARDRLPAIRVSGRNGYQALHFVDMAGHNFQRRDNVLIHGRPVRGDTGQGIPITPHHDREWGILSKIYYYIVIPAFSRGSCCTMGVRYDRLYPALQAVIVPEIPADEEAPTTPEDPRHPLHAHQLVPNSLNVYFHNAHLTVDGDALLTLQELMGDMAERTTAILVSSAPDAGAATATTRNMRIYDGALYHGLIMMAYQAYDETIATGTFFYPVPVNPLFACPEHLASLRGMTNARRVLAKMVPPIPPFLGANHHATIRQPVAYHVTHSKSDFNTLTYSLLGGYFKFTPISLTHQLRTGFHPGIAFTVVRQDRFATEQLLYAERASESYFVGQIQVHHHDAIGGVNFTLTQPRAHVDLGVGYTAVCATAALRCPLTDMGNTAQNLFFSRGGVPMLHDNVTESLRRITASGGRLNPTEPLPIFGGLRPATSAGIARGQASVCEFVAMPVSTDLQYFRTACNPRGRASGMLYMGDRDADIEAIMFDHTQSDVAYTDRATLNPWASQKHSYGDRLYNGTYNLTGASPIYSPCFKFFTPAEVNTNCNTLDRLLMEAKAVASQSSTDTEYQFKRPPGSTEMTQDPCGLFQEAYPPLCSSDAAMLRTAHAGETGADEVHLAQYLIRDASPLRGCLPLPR

Molecule: VZV capsid-associated tegument complex (CATC)
- percent of pentons bound with CATCs [1]: 50.5%

B1: VZV small capsid protein (SCP) pORF23 (natural protein)
chain: MTQPASSRVVFDPSNPTTFSVEAIAAYTPVALIRLLNASGPLQPGHRVDIADARSIYTVGAAASAARARANHNANTIRRTAMFAETDPMTWLRPTVGLKRTFNPRIIRPQPPNPSMSLGISGPTILPQKTQSADQSALQQPAALAFSGSSPQHPPPQTTSASVGQQQHVVSGSSGQQPQQGAQSSTVQPTTGSPPAAQGVPQSTPPPTQNTPQGGKGQTLSHTGQSGNASRSRRV
- stoichiometry N [2]: 6
